Results as given in patent US20240199762A1 (PHILOGEN S P A, published 2024).

T1: canine FAP (caFAP) extracellular domain (ECD) (domestic dog (Canis familiaris))
T1 construct: also called caFAP-ECD
T1 chain: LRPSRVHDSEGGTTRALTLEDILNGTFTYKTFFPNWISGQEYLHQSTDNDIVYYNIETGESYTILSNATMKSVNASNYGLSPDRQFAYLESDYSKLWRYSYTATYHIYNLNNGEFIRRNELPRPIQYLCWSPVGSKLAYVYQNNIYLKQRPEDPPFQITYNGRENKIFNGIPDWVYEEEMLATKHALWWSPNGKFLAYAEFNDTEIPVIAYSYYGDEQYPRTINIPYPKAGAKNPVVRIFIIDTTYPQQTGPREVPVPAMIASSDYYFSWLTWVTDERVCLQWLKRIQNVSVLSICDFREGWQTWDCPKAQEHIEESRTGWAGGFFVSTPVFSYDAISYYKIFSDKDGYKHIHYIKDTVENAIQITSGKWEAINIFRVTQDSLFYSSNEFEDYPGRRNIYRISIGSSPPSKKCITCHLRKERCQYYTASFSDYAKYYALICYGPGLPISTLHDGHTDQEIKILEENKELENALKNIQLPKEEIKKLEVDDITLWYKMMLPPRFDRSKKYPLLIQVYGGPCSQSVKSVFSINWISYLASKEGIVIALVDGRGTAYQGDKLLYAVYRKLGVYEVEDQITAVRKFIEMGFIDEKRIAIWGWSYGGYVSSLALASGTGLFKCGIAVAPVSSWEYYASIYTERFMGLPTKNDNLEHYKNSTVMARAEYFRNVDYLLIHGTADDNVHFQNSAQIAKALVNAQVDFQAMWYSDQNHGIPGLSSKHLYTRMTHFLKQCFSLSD

T2: human FAP expressed on transduced cells (SKRC52-hFAP, HT-1080-hFAP) (human, UniProt Q12884 1-760)
T2 construct: whole, on cells; Also the target in SKRC52-hFAP tumor cryosections and in tumors of tumor-bearing mice; also called cell-expressed human FAP
T2 sequence (looked up): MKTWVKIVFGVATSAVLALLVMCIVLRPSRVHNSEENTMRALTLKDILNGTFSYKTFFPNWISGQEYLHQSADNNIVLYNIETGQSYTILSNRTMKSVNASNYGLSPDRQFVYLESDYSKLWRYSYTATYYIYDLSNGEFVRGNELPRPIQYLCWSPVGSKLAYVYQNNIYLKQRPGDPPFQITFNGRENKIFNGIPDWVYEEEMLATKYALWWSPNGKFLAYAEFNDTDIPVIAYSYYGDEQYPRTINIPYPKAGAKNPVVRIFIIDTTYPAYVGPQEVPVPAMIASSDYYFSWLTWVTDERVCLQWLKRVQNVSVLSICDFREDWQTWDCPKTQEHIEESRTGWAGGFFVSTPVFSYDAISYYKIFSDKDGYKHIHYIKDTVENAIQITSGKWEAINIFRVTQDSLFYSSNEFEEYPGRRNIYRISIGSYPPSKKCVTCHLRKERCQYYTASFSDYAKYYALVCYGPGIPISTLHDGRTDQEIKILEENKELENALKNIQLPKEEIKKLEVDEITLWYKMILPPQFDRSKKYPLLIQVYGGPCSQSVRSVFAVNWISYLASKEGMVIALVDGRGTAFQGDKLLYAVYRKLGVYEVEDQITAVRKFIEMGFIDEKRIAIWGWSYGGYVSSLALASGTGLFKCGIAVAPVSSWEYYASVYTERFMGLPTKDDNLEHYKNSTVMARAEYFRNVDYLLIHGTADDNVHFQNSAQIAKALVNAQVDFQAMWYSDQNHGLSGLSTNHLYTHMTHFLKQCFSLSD

B1: anti-hen egg lysozyme antibody KSF in IgG1 format (antibody, V domains shown)
VH: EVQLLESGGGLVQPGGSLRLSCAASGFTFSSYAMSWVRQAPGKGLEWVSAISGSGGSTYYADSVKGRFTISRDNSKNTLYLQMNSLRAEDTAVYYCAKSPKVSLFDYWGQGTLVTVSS
VL: SSELTQDPAVSVALGQTVRITCQGDSLRSYYASWYQQKPGQAPVLVIYGKNNRPSGIPDRFSGSSSGNTASLTITGAQAEDEADYYCQSSPLNRLAVVFGGGTKLTVLG
notes: Negative control; It was conjugated to FITC in the immunofluorescence and ex vivo experiments; also called KSF IgG1; KSF(IgG1)
B2: anti-FAP antibody 7NP2 in IgG1 format (antibody, V domains shown)
VH: EVQLLESGGGLVQPGGSLRLSCAASGFTFSSYAMSWVRQAPGKGLEWVSAIGSVGGPTYYADSVKGRFTISRDNSKNTLYLQMNSLRAEDTAVYYCAKRLAWFDYWGQGTLVTVSS
VL: EIVLTQSPGTLSLSPGERATLSCRASQSVSSSYLAWYQQKPGQAPRLLIYGASSRATGIPDRFSGSGSGTDFTLTISRLEPEDFAVYYCQQSGKGPLTFGQGTKVEIKR
notes: also called 7NP2 IgG1; 7NP2(IgG1)

Legend:
[1] = target: T1, canine FAP (caFAP) extracellular domain …; assay: ELISA, 120 nM caFAP-ECD coated on Maxisorp plates
Protocol: Cross-reactivity of the anti-hFAP antibodies with caFAP-ECD was tested using ELISA. 120 nM of caFAP-ECD was coated on Maxisorp plates overnight at 4° C. […] Specifically, the C5 antibody was employed in IgG2a format, while all other antibodies, including the 7NP2 antibody, were in IgG1 format. The differences between the IgG2a and IgG1 formats are not expected to affect binding to FAP. After 3 washes with PBS, binding of the antibodies to caFAP-ECD was detected using an anti-human or anti-murine antibody HRP conjugate.

[2] = target: T2, human FAP expressed on transduced cells …; assay: immunofluorescence on SKRC52-hFAP tumor cryosections, FITC conjugate at 10 ug/mL
Protocol: Immunofluorescence experiments were performed with 7NP2 and KSF (negative control), both in IgG1 format on cryosections of renal cell carcinoma SKRC52-hFAP tumor tissue slides, which were transduced to express human FAP. The 7NP2 and KSF IgG1 molecules were conjugated to FITC to allow detection. Cryostat sections (10 μm) were stained using the 7NP2 and KSF IgG1 conjugates at a final concentration of 10 μg/mL and detected with rabbit anti-FITC and goat anti-rabbit AlexaFluor488 antibody. Slides were mounted with fluorescent mounting medium and analyzed with a microscope (FIG. 5).

Binder	binding result [1]	binding result [2]
B1	no binding (tested: 5 µg/mL)	–
B2	–	binds
